Assays:
HLA-A*03:01 = test: IEDB peptide-MHC binding, purified MHC/direct/fluorescence; filed as Kd, often an IC50 or EC50 that approximates it; ≥ and ≤ were set here for values at or beyond the usual limits of such assays; details: source organism: SARS-CoV1
HLA-A*11:01 = test: as above; details: source organism: SARS-CoV1

Sequence	Kd (HLA-A*03:01)	Kd (HLA-A*11:01)
AITTSNCAK	646 nM	54 nM
ALRANSAVK	197 nM	1760 nM
ASLPTTIAK	56 nM	19 nM
ATFSVPMEK	265 nM	28 nM
ATNNVFRLK	401 nM	233 nM
ATVVIGTSK	232 nM	30 nM
AVDPAKAYK	1670 nM	124 nM
AVLQSGFRK	259 nM	80 nM
GTLSYDNLK	365 nM	48 nM
GVAMPNLYK	60 nM	73 nM
ITCVVIPSK	1880 nM	290 nM
KCYGVSATK	2070 nM	8380 nM
KLFAAETLK	–	234 nM
KMQRMLLEK	305 nM	341 nM
KVIQPRVEK	595 nM	168 nM
LIGANYLGK	999 nM	1470 nM
QLFKPLTKK	215 nM	237 nM
RLYYDSMSY	52 nM	237 nM
SSNVANYQK	442 nM	23 nM
SSSLTSLLK	276 nM	51 nM
VTFQGKFKK	321 nM	91 nM
VVYRGTTTY	42 nM	117 nM
YIFFASFYY	1180 nM	347 nM

From the Immune Epitope Database (IEDB)
